Experimental findings from PMC12673853, “Impaired nick recognition and ligation efficiency by LIG1 K845N variant linked to Huntington’s disease” are described below.

Data set [1] deals with T1, LIG1 wild-type (Cy5-labelled) (human, UniProt P18858 1-919). Nature of the data set: single-molecule TIRF co-localization; tbound 7.0 ± 0.9 s and 0.7 ± 0.1 s; tunbound 61 ± 2 s; 1 nM LIG1; TIRF: 1 mM HEPES pH 7.4, 20 mM NaCl, 0.02% BSA, 0.002% Tween 20, oxygen scavenger (44 mM glucose, glucose oxidase, catalase), 10 mM Trolox, 1 nM LIG1-Cy5, room. To be noted: protein: recombinant; tags: 6xHis; Cy5 (NHS ester); label: 5'-biotin on S15; 3'-AF488 on S18; blunt 34-bp duplex with one nick between S15 and S18; 3'-A opposite T at nick.
T1 sequence (P18858 whole entry): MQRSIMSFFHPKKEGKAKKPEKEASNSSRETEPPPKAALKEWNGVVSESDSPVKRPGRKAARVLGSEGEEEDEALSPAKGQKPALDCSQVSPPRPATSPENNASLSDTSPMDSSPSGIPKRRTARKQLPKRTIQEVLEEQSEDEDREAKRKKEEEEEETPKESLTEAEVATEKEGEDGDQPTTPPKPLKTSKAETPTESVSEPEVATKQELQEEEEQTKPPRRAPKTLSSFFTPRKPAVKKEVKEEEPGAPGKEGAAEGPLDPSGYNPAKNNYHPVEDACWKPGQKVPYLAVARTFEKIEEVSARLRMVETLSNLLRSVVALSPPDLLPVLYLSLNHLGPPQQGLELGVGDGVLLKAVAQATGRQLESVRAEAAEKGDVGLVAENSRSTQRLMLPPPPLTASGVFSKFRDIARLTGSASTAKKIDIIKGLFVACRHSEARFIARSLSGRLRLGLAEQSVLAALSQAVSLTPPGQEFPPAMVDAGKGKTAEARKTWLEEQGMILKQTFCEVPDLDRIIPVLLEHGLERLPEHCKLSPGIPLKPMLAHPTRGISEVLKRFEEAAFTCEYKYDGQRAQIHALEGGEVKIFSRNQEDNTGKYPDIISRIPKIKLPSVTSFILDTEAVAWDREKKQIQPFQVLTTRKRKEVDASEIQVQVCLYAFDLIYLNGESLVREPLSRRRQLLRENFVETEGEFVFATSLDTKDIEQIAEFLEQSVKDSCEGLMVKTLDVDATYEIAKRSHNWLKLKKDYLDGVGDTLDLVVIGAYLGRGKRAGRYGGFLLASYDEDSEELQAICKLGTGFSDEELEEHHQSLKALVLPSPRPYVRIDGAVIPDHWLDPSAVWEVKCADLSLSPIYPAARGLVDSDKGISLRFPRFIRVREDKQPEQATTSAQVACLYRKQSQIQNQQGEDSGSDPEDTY

Data set [2] deals with T1, LIG1 wild-type (Cy5-labelled). Nature of the data set: single-molecule TIRF co-localization; tunbound 79 ± 5 s; 1 nM LIG1; TIRF: 1 mM HEPES pH 7.4, 20 mM NaCl, 0.02% BSA, 0.002% Tween 20, oxygen scavenger (44 mM glucose, glucose oxidase, catalase), 10 mM Trolox, 1 nM LIG1-Cy5, room. To be noted: protein: recombinant; tags: 6xHis; Cy5 (NHS ester); label: 5'-biotin on strand 1; 3'-AF488 on S18; blunt 34-bp duplex with one nick between strand 1 and S18; 3'-8oxoG opposite A at nick.

Data set [3] deals with LIG1 K845N (Cy5-labelled) (human, UniProt P18858 1-919, K845N). Kind of data set: single-molecule TIRF co-localization; long tbound 4 ± 0.7 s; tunbound 113 ± 8 s; similar to its nick binding, mostly nonspecific; 1 nM LIG1; TIRF: 1 mM HEPES pH 7.4, 20 mM NaCl, 0.02% BSA, 0.002% Tween 20, oxygen scavenger (44 mM glucose, glucose oxidase, catalase), 10 mM Trolox, 1 nM LIG1-Cy5, room. The conditions noted are these: protein: recombinant; tags: 6xHis; Cy5 (NHS ester); label: 5'-biotin and 3'-AF488 on S1; blunt, no nick.
LIG1 K845N (Cy5-labelled), sequence (P18858 whole entry K845N): as the sequence (P18858 whole entry) above, with K845N counted along it

Substitutions are numbered along the chain they refer to.

B1: nick A:T (dsDNA)
DNA 1: CATGGGCGGCATGAACCA
DNA 2: GAGGCCCATCCTCACC
DNA 3: GGTGAGGATGGGCCTCTGGTTCATGCCGCCCATG
modifications: 5'-phosphate on S18 at nick
For B1, the binding result in data set [1] was “binds”.

B2: nick 8oxoG:A (dsDNA)
DNA 1: CATGGGCGGCATGAACCG
DNA 2: GAGGCCCATCCTCACC
DNA 3: B1 DNA 3 with T17A
modifications: 8-oxo-dG at position 18 of strand 1; 5'-phosphate on S18 at nick
For the molecule B2, the binding result in data set [2] is “binds”.

B3: no-nick dsDNA (dsDNA)
DNA 1: CATGGGCGGCATGAACCAGAGGCCCATCCTCACC
DNA 2: B1 DNA 3
On to B3, for which the binding result in data set [3] is “binds”.
